From US20250002610A1 (Genmab, published 2025)

T1: human DR4 (Death Receptor 4), cell surface expressed on human tumor cell lines (human, UniProt O00220 24-468)
T1 construct: also called TNFRSF10A; TRAIL-R1
T1 sequence: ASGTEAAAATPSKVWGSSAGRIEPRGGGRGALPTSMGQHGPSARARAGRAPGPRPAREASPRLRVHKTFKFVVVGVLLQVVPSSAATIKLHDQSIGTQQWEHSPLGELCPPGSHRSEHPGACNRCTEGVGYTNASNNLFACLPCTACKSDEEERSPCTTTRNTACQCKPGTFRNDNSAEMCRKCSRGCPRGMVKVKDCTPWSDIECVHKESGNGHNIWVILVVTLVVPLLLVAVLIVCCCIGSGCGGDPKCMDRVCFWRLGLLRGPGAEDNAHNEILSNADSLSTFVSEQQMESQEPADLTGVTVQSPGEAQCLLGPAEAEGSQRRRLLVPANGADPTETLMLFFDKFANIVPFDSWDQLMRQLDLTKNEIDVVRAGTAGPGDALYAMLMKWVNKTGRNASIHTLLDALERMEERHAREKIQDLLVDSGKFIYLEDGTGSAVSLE

T2: cynomolgus monkey FAPα on Expi293F cells (cynomolgus monkey (Macaca fascicularis), UniProt Q12884 1-760 (human entry))
T2 sequence: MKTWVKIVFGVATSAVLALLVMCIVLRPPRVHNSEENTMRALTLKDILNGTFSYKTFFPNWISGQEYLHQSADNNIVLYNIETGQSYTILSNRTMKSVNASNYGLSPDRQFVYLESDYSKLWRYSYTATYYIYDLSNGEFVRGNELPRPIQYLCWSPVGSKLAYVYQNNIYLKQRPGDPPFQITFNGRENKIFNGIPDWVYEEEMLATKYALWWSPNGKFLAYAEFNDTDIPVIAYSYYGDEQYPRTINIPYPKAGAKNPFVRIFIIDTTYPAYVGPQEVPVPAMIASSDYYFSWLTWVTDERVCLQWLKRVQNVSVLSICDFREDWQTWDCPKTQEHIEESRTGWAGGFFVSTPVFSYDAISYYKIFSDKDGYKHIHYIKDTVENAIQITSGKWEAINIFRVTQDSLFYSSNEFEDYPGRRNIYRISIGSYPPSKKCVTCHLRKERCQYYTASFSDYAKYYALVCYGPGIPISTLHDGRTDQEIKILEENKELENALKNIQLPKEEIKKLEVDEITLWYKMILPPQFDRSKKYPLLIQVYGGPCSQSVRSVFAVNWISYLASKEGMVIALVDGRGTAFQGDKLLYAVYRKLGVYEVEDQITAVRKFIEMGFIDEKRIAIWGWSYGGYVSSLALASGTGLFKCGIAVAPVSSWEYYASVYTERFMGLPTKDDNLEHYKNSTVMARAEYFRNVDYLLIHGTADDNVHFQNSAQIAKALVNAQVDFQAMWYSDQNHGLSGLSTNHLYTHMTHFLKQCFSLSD

T3: pig FAPα on Expi293F cells (pig (Sus scrofa), UniProt A5D7B7 1-760 (bovine entry))
T3 chain: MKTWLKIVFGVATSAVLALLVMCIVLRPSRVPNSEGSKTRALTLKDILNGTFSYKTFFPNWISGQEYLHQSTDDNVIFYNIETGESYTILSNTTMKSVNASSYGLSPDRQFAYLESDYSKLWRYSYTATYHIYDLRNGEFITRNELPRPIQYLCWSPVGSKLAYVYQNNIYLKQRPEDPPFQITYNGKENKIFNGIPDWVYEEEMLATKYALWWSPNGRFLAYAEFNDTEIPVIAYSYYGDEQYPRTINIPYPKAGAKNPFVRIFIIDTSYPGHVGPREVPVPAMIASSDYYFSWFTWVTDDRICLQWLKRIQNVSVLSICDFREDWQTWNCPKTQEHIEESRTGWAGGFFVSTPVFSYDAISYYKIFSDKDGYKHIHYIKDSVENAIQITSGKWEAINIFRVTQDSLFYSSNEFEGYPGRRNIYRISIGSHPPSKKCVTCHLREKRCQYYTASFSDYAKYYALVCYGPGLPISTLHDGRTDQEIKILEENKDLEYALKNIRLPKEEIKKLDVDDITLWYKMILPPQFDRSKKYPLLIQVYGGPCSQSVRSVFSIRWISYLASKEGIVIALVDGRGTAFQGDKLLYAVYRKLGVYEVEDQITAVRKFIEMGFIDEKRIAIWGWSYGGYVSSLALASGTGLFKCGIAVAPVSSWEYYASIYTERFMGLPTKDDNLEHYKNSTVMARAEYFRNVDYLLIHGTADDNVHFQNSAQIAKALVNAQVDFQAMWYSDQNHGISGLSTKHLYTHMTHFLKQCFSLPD


Tests used:
[1] = molecular target: T1, human DR4 (Death Receptor 4), cell …; assay: flow cytometry, PANC-1 cells, n = 2
[2] = molecular target: T1, human DR4 (Death Receptor 4), cell …; assay: flow cytometry, MDA-MB-231 cells, N = 1
[3] = molecular target: T2, cynomolgus monkey FAPα on Expi293F cells; assay: flow cytometry, Expi293F cells expressing cynomolgus monkey FAPα, n = 1
Experimental: (§1) Binding of BisG1-FAPα-FERL/DR4-FERR, BisG1-FAPα-FEAL/b12-FEAR and IgG1-FAPα-FERL to FAPα of species commonly used for nonclinical toxicology studies was assessed by flow cytometry using Expi293F cells transiently expressing FAPα from different animal species. IgG1-b12 was included as negative control.
(§2) Expi293F cells expressing recombinant FAPα from various species (human, cynomolgus monkey, dog, pig, rat or mouse) were seeded (20,000 cells/well) in 96-Well round bottom plates (Greiner Bio-one, Cat #650101). Antibody dilutions were prepared using FACS buffer, consisting of PBS (Capricorn Scientific, Cat #PBS-10XA, diluted to 1×PBS in distilled water)+1% BSA (Roche, Cat #10735086001)+0.02% Sodium Azide (Bio-World, Cat #41920044-3). Plates were centrifuged, supernatant was removed, and cells were resuspended in 100 μL of antibody dilutions (concentration range 30-0.00017 μg/mL with three-fold serial dilutions using FACS buffer) of BisG1-FAPα-FERL/DR4-FERR, BisG1-FAPα-FEAL/b12-FEAR, IgG1-FAPα-FERL and IgG1-b12 and incubated for 30 min at 4° C. […] After 30 min incubation at 4° C., cells were washed with FACS buffer and resuspended in FACS buffer supplemented with TO-PRO-3 Iodide viability marker (Invitrogen, Cat #T3605, diluted 1:4,000). Antibody binding to viable cells (gMFI of PE on TO-PRO-3 negative cells) was analyzed by flow cytometry on a FACS Celesta and FACS_Diva software (first two experiments) or iQue® 3 and FlowJo software (last experiment). gMFI was determined and visualized using GraphPad Prism. Binding curves were analyzed using nonlinear regression analysis. The concentration (pg/mL) at which 50% of the maximal effect was observed (EC₅₀) was derived from the fitted curves.

[4] = molecular target: T3, pig FAPα on Expi293F cells; assay: flow cytometry on Expi293F cells transiently expressing pig FAPα, gMFI PE
Experimental: as §1, §2

Row | Binder | EC50 [1] | EC50 [2] | EC50 [3] | binding result [4] | Max MFI (at 90 µg/mL) [2]
1 | BisG1-FAPα-FERL/DR4-FERR (bispecific antibody, human IgG1, kappa, lambda, Human IgG1 bispecific made by controlled Fab-arm exchange of IgG1-FAPα-FERL and IgG1-DR4-FERR; monovalent for FAPα and for DR4; also called GEN1057) heavy 1: EVQLLESGGGLVQPGGSPRLSCEASGFTFSSYALSWVRQAPGKGLEWVSAISGSGGGRYYADSVKGRFTISRDNSKNTLFLQMNSLRAEDTAVYYCAKEGYSSSGTYWDHWGQGTLVTVSSASTKGPSVFPLAPSSKSTSGGTAALGCLVKDYFPEPVTVSWNSGALTSGVHTFPAVLQSSGLYSLSSVVTVPSSSLGTQTYICNVNHKPSNTKVDKRVEPKSCDKTHTCPPCPAPEFERGPSVFLFPPKPKDTLMISRTPEVTCVVVDVSHEDPEVKFNWYVDGVEVHNAKTKPREEQYNSTYRVVSVLTVLHQDWLNGKEYKCKVSNKALPAPIEKTISKAKGQPREPQVYTLPPSREEMTKNQVSLTCLVKGFYPSDIAVEWESNGQPENNYKTTPPVLDSDGSFLLYSKLTVDKSRWQQGNVFSCSVMHEALHNHYTQKSLSLSPG light 1: AIQMTQSPSSVSASVGDRVTITCRASQGVSSWLAWYQQKPGRAPKLLIYVASTLQSGVPSRFSGSGSGTDFTLTINSLQPEDFATYYCQQANSFPPTFGQGTRLEMKRTVAAPSVFIFPPSDEQLKSGTASVVCLLNNFYPREAKVQWKVDNALQSGNSQESVTEQDSKDSTYSLSSTLTLSKADYEKHKVYACEVTHQGLSSPVTKSFNRGEC heavy 2: QVQLQESGPGLVKPSGTLSLTCAVSGGSISSYSWWSWIRQPPGKGLEWIGELYHSGSTNYNPSLKSRVTISVDKSKNQFSLKLRSVTAADTAVYYCVRGVATIDYWGQGTLVTVSSASTKGPSVFPLAPSSKSTSGGTAALGCLVKDYFPEPVTVSWNSGALTSGVHTFPAVLQSSGLYSLSSVVTVPSSSLGTQTYICNVNHKPSNTKVDKRVEPKSCDKTHTCPPCPAPEFERGPSVFLFPPKPKDTLMISRTPEVTCVVVDVSHEDPEVKFNWYVDGVEVHNAKTKPREEQYNSTYRVVSVLTVLHQDWLNGKEYKCKVSNKALPAPIEKTISKAKGQPREPQVYTLPPSREEMTKNQVSLTCLVKGFYPSDIAVEWESNGQPENNYKTTPPVLDSDGSFFLYSRLTVDKSRWQQGNVFSCSVMHEALHNHYTQKSLSLSPG light 2: QSALTQPPSASGSPGQSVTISCTGTSSDVGGYNFVSWYQQDPGKAPKLLIYEVTKRPSGVPDRFSGSKSGNTASLTVSGLQAEDEADYYCSSYAGSNNVMFGGGTKLTVLGQPKAAPSVTLFPPSSEELQANKATLVCLISDFYPGAVTVAWKADSSPVKAGVETTTPSKQSNNKYAASSYLSLTPEQWKSHRSYSCQVTHEGSTVEKTVAPTECS | 1.89 µg/mL | 0.71 µg/mL | 0.24 µg/mL | binds | –
2 | BisG1-b12-FERL/DR4-FERR (bispecific antibody, human IgG1, kappa, lambda, Fab-arm exchange of IgG1-b12-FERL and IgG1-DR4-FERR; also called bsIgG1-ctrl-FERLxDR4-FERR) heavy 1: QVQLVQSGAEVKKPGASVKVSCQASGYRFSNFVIHWVRQAPGQRFEWMGWINPYNGNKEFSAKFQDRVTFTADTSANTAYMELRSLRSADTAVYYCARVGPYSWDDSPQDNYYMDVWGKGTTVIVSSASTKGPSVFPLAPSSKSTSGGTAALGCLVKDYFPEPVTVSWNSGALTSGVHTFPAVLQSSGLYSLSSVVTVPSSSLGTQTYICNVNHKPSNTKVDKRVEPKSCDKTHTCPPCPAPEFERGPSVFLFPPKPKDTLMISRTPEVTCVVVDVSHEDPEVKFNWYVDGVEVHNAKTKPREEQYNSTYRVVSVLTVLHQDWLNGKEYKCKVSNKALPAPIEKTISKAKGQPREPQVYTLPPSREEMTKNQVSLTCLVKGFYPSDIAVEWESNGQPENNYKTTPPVLDSDGSFLLYSKLTVDKSRWQQGNVFSCSVMHEALHNHYTQKSLSLSPG light 1: EIVLTQSPGTLSLSPGERATFSCRSSHSIRSRRVAWYQHKPGQAPRLVIHGVSNRASGISDRFSGSGSGTDFTLTITRVEPEDFALYYCQVYGASSYTFGQGTKLERKRTVAAPSVFIFPPSDEQLKSGTASVVCLLNNFYPREAKVQWKVDNALQSGNSQESVTEQDSKDSTYSLSSTLTLSKADYEKHKVYACEVTHQGLSSPVTKSFNRGEC heavy 2: QVQLQESGPGLVKPSGTLSLTCAVSGGSISSYSWWSWIRQPPGKGLEWIGELYHSGSTNYNPSLKSRVTISVDKSKNQFSLKLRSVTAADTAVYYCVRGVATIDYWGQGTLVTVSSASTKGPSVFPLAPSSKSTSGGTAALGCLVKDYFPEPVTVSWNSGALTSGVHTFPAVLQSSGLYSLSSVVTVPSSSLGTQTYICNVNHKPSNTKVDKRVEPKSCDKTHTCPPCPAPEFERGPSVFLFPPKPKDTLMISRTPEVTCVVVDVSHEDPEVKFNWYVDGVEVHNAKTKPREEQYNSTYRVVSVLTVLHQDWLNGKEYKCKVSNKALPAPIEKTISKAKGQPREPQVYTLPPSREEMTKNQVSLTCLVKGFYPSDIAVEWESNGQPENNYKTTPPVLDSDGSFFLYSRLTVDKSRWQQGNVFSCSVMHEALHNHYTQKSLSLSPG light 2: QSALTQPPSASGSPGQSVTISCTGTSSDVGGYNFVSWYQQDPGKAPKLLIYEVTKRPSGVPDRFSGSKSGNTASLTVSGLQAEDEADYYCSSYAGSNNVMFGGGTKLTVLGQPKAAPSVTLFPPSSEELQANKATLVCLISDFYPGAVTVAWKADSSPVKAGVETTTPSKQSNNKYAASSYLSLTPEQWKSHRSYSCQVTHEGSTVEKTVAPTECS | 2.12 µg/mL | 0.39 µg/mL | – | – | 7840 MFI
